Our source for the Km and Vmax values is paper PMC5794333, “Identification of osmoadaptive strategies in the halophile, heterotrophic ciliate Schmidingerothrix salinarum” (PLoS Biology, 2018).

Substrate in series [1]: O=C(O)CC(=O)C(=O)O
Briefly: purified protein. The settings on record: 0.05 M NaCl, 0.3 mM NADH, 32.5 mM Tris/HCl pH 7.5.

Substrate in series [2]: O=C(O)CC(C(=O)O)C(O)C(=O)O
The experiment in a line: purified protein. Particulars: 0.05 M NaCl, 0.8 mM NADP+, 1 mM MgCl2, 32.5 mM Tris/HCl pH 7.5, concentration as DL-isocitrate. In kind it is biochemical, Escherichia coli.

B1: MDHE.coli (Escherichia coli K-12) (protein)
chain: MKVAVLGAAGGIGQALALLLKTQLPSGSELSLYDIAPVTPGVAVDLSHIPTAVKIKGFSGEDATPALEGADVVLISAGVARKPGMDRSDLFNVNAGIVKNLVQQVAKTCPKACIGIITNPVNTTVAIAAEVLKKAGVYDKNKLFGVTTLDIIRSNTFVAELKGKQPGEVEVPVIGGHSGVTILPLLSQVPGVSFTEQEVADLTKRIQNAGTEVVEAKAGGGSATLSMGQAAARFGLSLVRALQGEQGVVECAYVEGDGQYARFFSQPLLLGKNGVEERKSIGTLSAFEQNALEGMLDTLKKDIALGEEFVNK
For orientation: Km means the substrate concentration at which the rate is half of its maximum. One may read the Vmax as the top rate of the reaction or transport when substrate is in excess. Take B1: in the series “purified protein [1]”, the Km worked out at 22 µM and the maximum rate (Vmax) is 1490 µmol/min/mg.

B2: ICDHE.coli (Escherichia coli K-12) (protein)
chain: MESKVVVPAQGKKITLQNGKLNVPENPIIPYIEGDGIGVDVTPAMLKVVDAAVEKAYKGERKISWMEIYTGEKSTQVYGQDVWLPAETLDLIREYRVAIKGPLTTPVGGGIRSLNVALRQELDLYICLRPVRYYQGTPSPVKHPELTDMVIFRENSEDIYAGIEWKADSADAEKVIKFLREEMGVKKIRFPEHCGIGIKPCSEEGTKRLVRAAIEYAIANDRDSVTLVHKGNIMKFTEGAFKDWGYQLAREEFGGELIDGGPWLKVKNPNTGKEIVIKDVIADAFLQQILLRPAEYDVIACMNLNGDYISDALAAQVGGIGIAPGANIGDECALFEATHGTAPKYAGQDKVNPGSIILSAEMMLRHMGWTEAADLIVKGMEGAINAKTVTYDFERLMDGAKLLKCSEFGDAIIENM
notes: N-terminal His-tag, cloned from genomic DNA into pETDuet-1, E. coli BL21; Ni-NTA
Consider B2, for which, in the series “purified protein [2]”, the Km was determined as 21 µM and the Vmax is 46 µmol/min/mg.
